From US20210221899A1 (published 2021)
Numbering of substitutions follows the chain as printed.

T1: canine NGF (canine, UniProt Q29074 110-229 (pig entry), limits assumed)
T1 construct: The protein was secreted from CHO cells and purified; also called cNGF; canine β-NGF
T1 chain: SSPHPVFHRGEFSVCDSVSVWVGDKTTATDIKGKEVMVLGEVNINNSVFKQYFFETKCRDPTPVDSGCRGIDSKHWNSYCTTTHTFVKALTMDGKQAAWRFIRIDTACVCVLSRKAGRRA

T2: human NGF (human, UniProt P01138 122-241)
T2 construct: also called human Nerve Growth Factor; hN
T2 chain: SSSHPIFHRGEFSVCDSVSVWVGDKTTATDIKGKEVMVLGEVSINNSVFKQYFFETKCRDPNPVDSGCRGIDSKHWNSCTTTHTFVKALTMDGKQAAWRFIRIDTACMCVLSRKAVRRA

B1: ZTS-841 (antibody, V domains shown)
VH: EVQLVESGGDLVKPGGSLRLSCVASGFTFSSHGMHWVRQSPGKGLQWVAVINSGGSSTYYTDAVKGRFTISRDNAKNTVYLQMNSLRAEDTAMYYCAKESVGGWEQLVGPHFDYWGQGTLVIVSS
VL: QSVLTQPTSVSGSLGQRVTISCSGSTNNIGILGASWYQLFPGKAPKLLVYGNGNRPSGVPDRFSGADSGDSVTLTITGLQAEDEADYYCQSFDTTLGAHVFGGGTHLTVL
notes: Canine mAb; also called 9L12; can9L12
B2: humanized mAb can9L12VH_HM855939 / can9L12VL (antibody, V domains shown)
VH: QVQLVESGGGVVQPGGSLRLSCAASGFTFSSHGMHWVRQAPGKGLEWVSVINSGGSSTYYADSVKGRFTISRDNSKNTLYLQMNSLRAEDTAVYYCAKESVGGWEQLVGPHFDYWGQGTLVIVSS
VL: B1 VL
B3: can9L12VH_I50A (antibody, V domains shown)
VH: B1 VH with I51A
VL: B1 VL
B4: can9L12VH_D113A (antibody, V domains shown)
VH: B1 VH with D113A
VL: B1 VL
B5: humanized mAb can9L12VH_X92218 / can9L12VL (antibody, V domains shown)
VH: B2 VH with Q1E, V11L, H35S
VL: B1 VL
B6: humanized mAb can9L12VH / can9L12VL_M94116_65698 (antibody, V domains shown)
VH: B1 VH
VL: QSVLTQPTSVSGAPGQRVTISCTGSTNNIGILGVHWYQQLPGTAPKLLIYGNGNRPSGVPDRFSGADSGDSVSLAITGLQAEDEADYYCQSFDTTLGAHVFGGGTHLTVL
B7: ZTS-842 (antibody, V domains shown)
VH: EVQLVESGGDLVKPGGSLRLSCVASGFTFSTYGINWVRQAPGKGLQWVAYISSGGSSTYYADPVKGRFTISRDDAKNMLYLQMNSLRAEDTAIYYCAGSRYTYAYGGGYEFHFWGQGTLVTVSS
VL: QAVLNQPASVSGALGQKVTISCSGSTMDIDIFGVSWYQQLPGKAPKLLVDSDGDRPSGIPDRFSGSRSGNSGTLTITGLQAEDEADYHCQSGDSTLGALAIFGGGTHVTVL
notes: Canine mAb; also called 48L2; can48L2
B8: humanized mAb can48L2VH_HM855323.1 / can48L2VL_Z22192.1 (antibody, V domains shown)
VH: B7 VH with D10G, V23A, Q46E, A49S, P63S, D74N, M78S, I93V
VL: QSVVTQPPSVSGAPGQRVTISCTGSTMDIDIFGVSWYQQLPGTAPKLLIYGDGDRPSGVPDRFSGSKSGASASLAITGLQAEDEADYHCQSGDSTLGALAIFGGGTHVTVL
B9: can48L2VL_T26A (antibody, V domains shown)
VH: B7 VH
VL: B7 VL with T26A
notes: CDR scanning mutant of ZTS-842 (48L2)
B10: humanized mAb can48L2VH_HM855336.1 / can48L2VL_Z22192.1_P8A (antibody, V domains shown)
VH: EVQLVESGGGLVQPGGSLRLSCAASGFTFSTYGMNWVRQAPGKGLEWVSYISSGGSSIYYADSVKGRFTISRDNAKNSLYLQMNSLRAEDTAVYYCAGSRYTYAYGGGYEFHFWGQGTLVTVSS
VL: B8 VL with P8A
B11: humanized mAb can48L2VH_HM855336.1 / can48L2VL_Z22192.1 (antibody, V domains shown)
VH: B10 VH
VL: B8 VL
B12: can48L2VL_S51A (antibody, V domains shown)
VH: B7 VH
VL: B7 VL with S51A
notes: as for B9
B13: humanized mAb can48L2VH_HM855323.1 / can48L2VL_Z22192.1_P14L (antibody, V domains shown)
VH: B10 VH with Q13K, M34I, I58T
VL: B8 VL with P14L
B14: can48L2VL_S94A (antibody, V domains shown)
VH: B7 VH
VL: B7 VL with S94A
notes: as for B9
B15: humanized mAb can48L2VH_HM855336.1 / can48L2VL_Z22192.1_P14L (antibody, V domains shown)
VH: B10 VH
VL: B8 VL with P14L
B16: can48L2VL_Q90A (antibody, V domains shown)
VH: B7 VH
VL: B7 VL with Q90A
notes: as for B9
B17: can48L2VL_T95A (antibody, V domains shown)
VH: B7 VH
VL: B7 VL with T95A
notes: as for B9
B18: can48L2VL_S91A (antibody, V domains shown)
VH: B7 VH
VL: B7 VL with S91A
notes: as for B9
B19: humanized mAb can48L2VH_HM855323.1 / can48L2VL_Z22192.1_P8A (antibody, V domains shown)
VH: B10 VH with Q13K, M34I, I58T
VL: B8 VL with P8A
B20: can48L2VL_M27A (antibody, V domains shown)
VH: B7 VH
VL: B7 VL with M27A
notes: as for B9

Legend:
canine NGF [1] = molecular target: T1, canine NGF; assay: SPR (Biacore), NGF amine-coupled on chip, antibody injected
Description: (§1) Antibody binding affinities of the antibodies against canine NGF were determined by surface plasmon resonance (SPR) on a Biacore system (Biocore Life Sciences (GE Healthcare), Uppsala, Sweden). Immobilization of canine and rat NGF were obtained by amine coupling […] NGF using N-hydroxysuccinimide (NHS)/1-Ethyl-3-(3-dimethylaminopropyl) carbodiimide (EDC) chemistry. Chips were quenched with ethanolamine and the affinity with which all candidate mAbs bound to the immobilized NGF was evaluated. Various concentrations of canine and felinized anti-NGF antibodies were injected over the NGF surfaces while the association of the antibody to the antigen and the dissociation of the formed complex were monitored in real time. Kinetic analysis was performed to obtain the equilibrium dissociation constant (KD).

rat NGF [2] = molecular target: T3, rat NGF (rat, UniProt P25427 122-241); assay: as above
T3 construct: also called rN
T3 sequence (P25427 122-241 limits assumed): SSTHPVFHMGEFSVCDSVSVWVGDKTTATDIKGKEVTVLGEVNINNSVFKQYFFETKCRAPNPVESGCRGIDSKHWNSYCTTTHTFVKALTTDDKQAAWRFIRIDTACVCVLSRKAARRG
Description: as §1

human NGF [3] = molecular target: T2, human NGF; assay: SPR (Biacore), human NGF amine-coupled on chip, antibody injected
Description: Antibody binding affinities of the antibodies against human NGF (SEQ ID NO.66) were determined by surface plasmon resonance (SPR). Human NGF was immobilized on the surface of a BIACORE chip by direct amine coupling. Various concentrations of the described humanized anti-NGF antibodies were injected over the human NGF surfaces while the association of the antibody to the antigen and the dissociation of the formed complex were monitored in real time. Kinetic analysis was performed to obtain the equilibrium dissociation constant (KD).

canine NGF [4] = molecular target: T1, canine NGF; assay: SPR (Biacore T200), 100 nM mAb on NGF chip, similarity to parent mAb
Method in brief: (§2)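 CDR alanine-scan mutants of the anti-NGF mAb were each run at 100 nM over an NGF-coated Biacore T200 chip. A threshold band was set from the mean response units of four parent-mAb replicates ±3 SD, covering both on- and off-rate phases. The score is the percentage of each mutant's data points falling inside that band.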

rat NGF [5] = molecular target: T3, rat NGF; assay: as above
Method in brief: as §2

human NGF [6] = molecular target: T2, human NGF; assay: as above
Method in brief: as §2

| Binder | Kd (human NGF [3]) [nM] | koff (human NGF [3]) [s⁻¹] | kon (human NGF [3]) [M⁻¹ s⁻¹] | Percent Similarity Score (KD on cN) (canine NGF [4]) [%] | Percent Similarity Score (KD on rN) (rat NGF [5]) [%] | Percent Similarity Score (KD on hN) (human NGF [6]) [%] | also measured |
| --- | --- | --- | --- | --- | --- | --- | --- |
| B1 | – | – | – | – | – | – | Kd (canine NGF [1]): 0.0506 nM; koff (canine NGF [1]): 2.36e-05 s⁻¹; kon (canine NGF [1]): 527000 M⁻¹ s⁻¹; Kd (rat NGF [2]): 0.108 nM; koff (rat NGF [2]): 4.61e-05 s⁻¹; kon (rat NGF [2]): 587000 M⁻¹ s⁻¹ |
| B2 | 4.12 | 0.00161 | 390000 | – | – | – | – |
| B3 | – | – | – | 100 | 92 | 96.6 | – |
| B4 | – | – | – | 100 | 100 | 100 | – |
| B5 | 0.126 | 3.78e-05 | 301000 | – | – | – | – |
| B6 | 9.19 | 0.00197 | 214000 | – | – | – | – |
| B7 | – | – | – | – | – | – | Kd (canine NGF [1]): 0.0217 nM; koff (canine NGF [1]): 2.27e-05 s⁻¹; kon (canine NGF [1]): 703000 M⁻¹ s⁻¹; Kd (rat NGF [2]): 0.00325 nM; koff (rat NGF [2]): 1.42e-06 s⁻¹; kon (rat NGF [2]): 573000 M⁻¹ s⁻¹ |
| B8 | 1.54 | 0.000256 | 167000 | – | – | – | – |
| B9 | – | – | – | 97.3 | 98 | 99.8 | – |
| B10 | 0.841 | 0.000212 | 252000 | – | – | – | – |
| B11 | 1.25 | 0.000337 | 269000 | – | – | – | – |
| B12 | – | – | – | 100 | 100 | 100 | – |
| B13 | 0.00102 | 1.46e-07 | 144000 | – | – | – | – |
| B14 | – | – | – | 97.8 | 99.3 | 100 | – |
| B15 | 1.49 | 0.000422 | 283000 | – | – | – | – |
| B16 | – | – | – | 94.4 | 98.7 | 99.9 | – |
| B17 | – | – | – | 94.9 | 99.4 | 99.6 | – |
| B18 | – | – | – | 59.6 | 76.7 | 97.5 | – |
| B19 | 1.54 | 0.000315 | 205000 | – | – | – | – |
| B20 | – | – | – | 28 | 37.9 | 72.1 | – |
